Publication PMC8965487

Target: Cy5-labeled extracellular domain of human Angiotensin-Converting Enzyme 2 (ACE2) (UniProt Q9BYF1)
Settings: parent: est. 0; read off a plot

| Substance | other: Log2 EC50 (WT/MT) |
| --- | --- |
| SARS-CoV-2 wild-type Spike S1+S2 D614G | 0.45 |
| SARS-CoV-2 wild-type Spike S1 HV69-70 del; N501Y; D614G | -0.05 |
| SARS-CoV-2 wild-type Spike S1 N234Q | -0.05 |
| SARS-CoV-2 wild-type Spike S1 L18F; D614G | 0.35 |
| SARS-CoV-2 wild-type Spike S1 D614G | -0.05 |
| SARS-CoV-2 wild-type Spike S1 A222V; D614G | -0.1 |
| SARS-CoV-2 wild-type Spike S1 T20N; D614G | 0.2 |
